Results published in patent US20230212266A1 (FRED HUTCHINSON CANCER CENTER, published 2023).
Substitutions are numbered along the chain they refer to. Read-outs that look alike come from different tables or passages of the source.

Tests used:
Experiment in all cases: BLI, mAb on anti-human Fc probe, antigen in solution
[1] = target: T1, SARS-CoV-2 receptor binding domain (RBD) (SARS-CoV-2, UniProt P0DTC2 319-591)
[2] = target: T1, SARS-CoV-2 receptor binding domain (RBD); remark: listed apart in the source
[3] = target: T1, SARS-CoV-2 receptor binding domain (RBD); remark: listed apart in the source
[4] = target: T1, SARS-CoV-2 receptor binding domain (RBD); remark: listed apart in the source
[5] = target: T1, SARS-CoV-2 receptor binding domain (RBD); remark: listed apart in the source
[6] = target: T1, SARS-CoV-2 receptor binding domain (RBD); remark: listed apart in the source
[7] = target: T1, SARS-CoV-2 receptor binding domain (RBD); remark: listed apart in the source
[8] = target: T1, SARS-CoV-2 receptor binding domain (RBD); remark: listed apart in the source
[9] = target: T1, SARS-CoV-2 receptor binding domain (RBD); remark: listed apart in the source
[10] = target: T1, SARS-CoV-2 receptor binding domain (RBD); remark: listed apart in the source
[11] = target: T1, SARS-CoV-2 receptor binding domain (RBD); remark: listed apart in the source
[12] = target: T1, SARS-CoV-2 receptor binding domain (RBD); remark: listed apart in the source
[13] = target: T1, SARS-CoV-2 receptor binding domain (RBD); remark: listed apart in the source
[14] = target: T1, SARS-CoV-2 receptor binding domain (RBD); remark: listed apart in the source
[15] = target: T1, SARS-CoV-2 receptor binding domain (RBD); remark: listed apart in the source
[16] = target: T1, SARS-CoV-2 receptor binding domain (RBD); remark: listed apart in the source
[17] = target: T1, SARS-CoV-2 receptor binding domain (RBD); remark: listed apart in the source

B1: CV2-18 (antibody, V domains shown)
VH: QVQLVQSGAEVKKPGSSVKVSCKASGGTFSSYAISWVRQAPGQGLEWMGGIIPIFGTANYAQKFQGRVTITADESTSTAYMELSSLRSEDTAVYYCARVGAYDSSGYYQDLWGRGTLVTVSS
VL: EIVLTQSPATLSLSPGERATLSCRASQSVSSYLAWYQQKPGQAPRLLIYDASNRATGIPARFSGSGSGTDFTLTISSLEPEDFAVYYCQQRSNWPPVITFGQGTRLEIK
notes: expressed as IgG
B1: no binding [1].

B2: CV2-6 (antibody, V domains shown)
VH: QVQLVESGGGVVQPGRSLRLSCAASGFTFSIYAIHWVRQAPGKGLEWVAVISYDGINKYYADAVKGRFTISRDNSKNTLFLQMNSLRTEDTAVYYCARAMGGNYFHAFDIWGQGTMVTVSS
VL: EIVLTQSPGTLSLSPGERATLSCRASQSVSSSYLAWYQRKPGQAPRLLIYGASNRATGIPDRFSGSGSGTDFTLTISRLEPEDFAVFYCQQYGSSPWTFGQGTKVEIK
notes: expressed as IgG
B2: no binding [2].

B3: CV2-8 (antibody, V domains shown)
VH: QVQLVESGGGVVQPGRSLRLSCGASGFIFSSYAMHWVRQAPGKGLEWVAVISYDGNNKYYADSVKGRFTISRDNSKNTLYLQMNSLRAEDTAVYYCARPYSGTYFSAFDIWGQGTMVTVSS
VL: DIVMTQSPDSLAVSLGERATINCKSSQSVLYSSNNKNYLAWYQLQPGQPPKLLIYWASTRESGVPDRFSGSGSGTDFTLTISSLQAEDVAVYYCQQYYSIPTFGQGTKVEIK
notes: expressed as IgG
B3: no binding [3].

B4: CV2-9 (antibody, V domains shown)
VH: EVQLVESGGGLIQPGGSLRLSCAASGFTVSSNYMTWVRQAPGKGLEWVSIIYSGGSTYYADSVKGRFTISRDNSKNTLYLQMNSLRAEDTAVYYCAAGYYDSINWGQGTLVTVPS
VL: DIQMTQSPSTLSASVGDRVTITCRASQSISTWLAWYQQKPGKAPKLLIYKASNLESGVPSRFSGSGSGTEFTLTISSLQPDDFATYYCQQYYTYSWTFGQGTKLEIKR
notes: expressed as IgG
B4: no binding [4].

B5: CV2-10 (antibody, V domains shown)
VH: QVQLQESGPGLVKPSGTLSLTCAVSGGSISSSTWWSWVRQPPGKGLEWIGEIYHSGSTNYNPSLKSRVTISVDKSKNQFSLKLSSVTAADTAVYYCARSASNYFGYYYYGMDVWGQGTTVTVSS
VL: EIVLTQSPATLSLSPGERATLSCRASQSVSSQLAWYQQKPGQAPRLLISDASNRATGIPARFSGSGSGTDFTLTISSLEPEDFAVYYCQQRSNWPRTFGQGTKVEIK
notes: expressed as IgG
B5: no binding [5].

B6: CV2-11 (antibody, V domains shown)
VH: EVQLVESGGGLVKPGGSLRLSCAASGFTFSSYSMNWVRQAPGKGLEWVSSISSSRSYIYYADSVKGRFTISRDNAKNSLYLQMNSLRAEDTAVYYCASNPAADPNTYYYYGMDVWGQGTTVTVSS
VL: QPVLTQPPSASASLGASVTLTCTLSSGYSNYKVDWYQQRPGKGPRFVMRVGTGGIVGSKGDGIPDRFSVLGSGLNRYLTIKNIQEEDESDYHCGADHGSGSNFVGVFGGGTKLTVL
notes: expressed as IgG
B6: no binding [6].

B7: CV2-12 (antibody, V domains shown)
VH: QVQLVESGGGVVQPGRSLRLSCAASGFTFSSYGIHWVRQAPGKGLEWVAVISYDGINKYYADSVKGRFTISRDNSKNTLYLHMNSLRAEDTAVYYCARPNSGSYHSYFDYWGQGTLVTVSS
VL: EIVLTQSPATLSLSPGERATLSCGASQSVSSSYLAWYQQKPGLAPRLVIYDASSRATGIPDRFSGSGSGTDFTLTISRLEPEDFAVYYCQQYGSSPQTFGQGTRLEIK
notes: expressed as IgG
B7: no binding [7].

B8: CV2-13 (antibody, V domains shown)
VH: EVQLVESGGGLVQPGGSLRLSCAASGFTFSSYEMNWVRQAPGKGLEWVSYISSSGSTIYYADSVKGRFTISRDNAKNSLYLEMNSLRAEDTAVYYCASTSDSGSYYIHWYFDLWGRGTLVTVSS
VL: QSALTQPASVSGSPGQSITISCTGTSSDVGSYNLVSWYQQHPGKAPKLMIYDVSKRPSGVSNRFSGSKSGNTASLTISGLQAEDEADYYCCSHAGSSTSYIFGTGTKVTVL
notes: expressed as IgG
B8: no binding [8].

B9: CV2-14 (antibody, V domains shown)
VH: QVQLVESGGGVVQPGRSLRLSCAASGFTFSSFALHWVRQAPGKGLEWVAVVSYDGSNKYYADSVKGRFTISRDNSKNTLYLQMNSLRAEDTAAYYCARSMGGNYADYFDYWGQGTLVTVSS
VL: B5 VL with S30T, S31N, Q32Y, S49Y, R96N, K103R, V104L
notes: expressed as IgG
B9: no binding [9].

B10: CV2-15 (antibody, V domains shown)
VH: QVQLVQSGAEVKKPGSSVKVSCKTSGGIFSSYAISWVRQAPGQGLEWMGGIIPIFGTANYAQKFQGRVTITADESTSTAYMELSSLRSEDTAVYYCASYSGFDDYGHYRNYWGQGTLVTVSS
VL: B1 VL with E1D, L4M, S7T, S31R, S92Y, V97E, I98L, Q102G, R105K, L106V
notes: expressed as IgG
B10: no binding [10].

B11: CV2-16 (antibody, V domains shown)
VH: QVQLVQSGAEVKKPGSSVKVSCKASGGTFSSFAFIWVRQAPGQGLEWMGGIIPIFGTAKYTQKFQGRVTITADESTSTAYMELSSLRSEDTAVYYCARVSYYDSSGFYTDYWGQGTLVTVSS
VL: B1 VL with E1D, L4M, Y32F, V97E, I98Y, R105K
notes: expressed as IgG
B11: no binding [11].

B12: CV2-17 (antibody, V domains shown)
VH: EVQLVESGGGLVQPGGSLRLSCSASGFTFSSYAMHWVRQAPGKGLEYVSTISTNGGSTYYADSVKGRFTISRDNSKNTLYLQMSSLRAEDTAVYYCVLGYCSSTSCQHFDYWGQGTLVTVSS
VL: B8 VL with S31A, L34Y, D52E, K55N, C91S, H93Y, A94T, G95S, S99P, I101V
notes: expressed as IgG
B12: no binding [12].

B13: CV2-19 (antibody, V domains shown)
VH: B7 VH with G33A, I34M, V50I, H82Q, A88V, N100G, S101G, H105Y, S106G, Y107P
VL: B8 VL with L34Y, D52E, K55N, I77L, C91S, H93Y, A94T, G95S, S99L, I101V
notes: expressed as IgG
B13: no binding [13].

B14: CV2-21 (antibody, V domains shown)
VH: QVQLVQSGAEVKKPGASVKVSCKAFGYTFTKNGINWVRQAPGQGLEWMGWISPNNGYTNFAQKFQGRATMTSDTSTSTAYMELRSLRSDDTAVYYCARVRVDYDSSGYDAYYYHLDVWGQGTTVTVSS
VL: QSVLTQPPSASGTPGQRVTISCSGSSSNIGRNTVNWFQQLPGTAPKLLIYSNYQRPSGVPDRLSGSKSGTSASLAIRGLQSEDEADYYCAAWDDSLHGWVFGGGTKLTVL
notes: expressed as IgG
B14: no binding [14].

B15: CV8 (antibody, V domains shown)
VH: QVQLVQSGAEVKKPGASVKVSCKASGYTFTSYGISWVRQAPGQGLEWMGWISAYNGNTNYAQKLQGRVTMTTDTSTSTAYMELRSLRSDDTAVYYCARLVPTWASYYDFWSGYPGGYGMDVWGQGTTVTVSS
VL: not shown
notes: expressed as IgG
B15: no binding [15].

B16: CV2-22 (antibody, V domains shown)
VH: QVQLVESGGGVVQPGRSLRLSCAASGFTFSSYGMHWVRQAPGKGLEWVAVISYDGSNKYYADSVKGRFTISRDNSKNTLYLQMNSLRAEDTALYYCASEIVSFIGSSEDYWGQGTLVTVSS
VL: SYELTQPPSVSVSPGQTARITCSGDALPKKYAYWYQQKSGQAPVLVIYEDSKRPSGIPERFSGSSSGTMATLTISGAQVEDEADYCCYSTDSSDNHRRVFGTGTKVTVL
notes: expressed as IgG
B16: no binding [16].

B17: CV2-23 (antibody, V domains shown)
VH: QVQLVESGGGVVQPGRSLRLSCAASGFTFNSFAMHWVRQAPGKGLEWVAVISYDGNNKYYADSVKGRFTISRDNSKNTLYLQMNSLRAEDTAVYYCARDRSGGYSCFDYWGQGTLVTVSS
VL: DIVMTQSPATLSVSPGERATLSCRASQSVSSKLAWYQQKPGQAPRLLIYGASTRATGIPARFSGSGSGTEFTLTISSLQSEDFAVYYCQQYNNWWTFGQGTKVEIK
notes: expressed as IgG
B17: no binding [17].
